Assay: yeast display, Sf9 membrane polyspecificity reagent, FACS + sequencing; frameworks hold sequencing errors
In short: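 A nanobody's polyreactivity label depends on the gate it was sorted from. Yeast display cells were stained with 10% biotinylated, detergent-solubilized Sf9 membrane reagent for 1 hour at 4 °C, enriched on streptavidin microbeads and sorted by FACS. The low and high (top ~1%) gates were set on anti-HA fluorescence for expression and streptavidin fluorescence for reagent binding.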

## QVQLVESGGGLVQAGGSLRLSCAASGFTFPYYAMGWYRQAPGKERELVAAITYSGDSTYYADSVKGRFTISRDNAKNTVYLQMNSLKPEDTAVYYCNVTPDWAVTDDYWGQGTQVTVSS
  polyreactivity (PSR sort gate): low polyreactivity

## QDQLEESVGGLVQAGGSLRLSCAASGRIFVYNAMGWYRQAPGKERELVAAISKGGGSTYYADSVKGRFTISRDNAKNTVYLQMNSLKPEDTAVYYCAAVVSGRYWGYYSWGQGTQVTVSS
  polyreactivity (PSR sort gate): high polyreactivity

## QVQLVESGGGLVQAGGSLRLRCAASGSTFANYAMGWYRQAPGKERELVAAISVGDGSTYYADSVKGRFTISRDNAKNTVYLQMNILKPEDTAVYYCSRVRGGYDSWGQGTQVTVSS
  polyreactivity (PSR sort gate): high polyreactivity

## QVQLVESGGGLVQAGGSLRLSCAASGRIFGYYGMGWYRQAPGKERELVAGITSSGGSTYYADSVKGRFTISRDNAKNTVYLQMNSLKPEDTAVYYCNVRRYGSRFDYWGQGTQVTVSS
  polyreactivity (PSR sort gate): high polyreactivity

## QVQLVESGGGLVQAGGSLRLSCAASGSICVQYAMGRSRQAPGKERELVAAISNSGGSTYYADSVKGRFTISRDTAKNTVYLQMNSLKPEDTAVYYCAARYHTRGAGRPYYYWGQGTQVTVSS
  polyreactivity (PSR sort gate): high polyreactivity

## QVQLVESGGGLVQAGGSLRLSCAASGRTFARNVMGSYRQAPGKERELVAAIRGSGGSTYYADSVKGRFTISRDNSKNTVYLQMNSLKPEDTAVYYCAADSSYTKRYSPTKLHFEYWGQGTQVTVSS
  polyreactivity (PSR sort gate): high polyreactivity

## QVQLVESGGGLVQAGGSLRLSCAASGFIFDLYAMGWYRQAPGKERELVAAITYSGGSTYYADSVKGRFTISRDNAKNTVYLQMNSLKPEDTAVYYCATVEKFYEYDHWGQGTQVTVSS
  polyreactivity (PSR sort gate): low polyreactivity

## QVHLVESGGGLVQAGGSLRLSCAASGLTFHVYAMGWYRQAPGKERELVAAISWSGGSTYYADSVKGRFTISRDNAKNTVYLQMNSLKPEDTAVYYCAAESLSQGIWYDYWGQGTQVTVSS
  polyreactivity (PSR sort gate): high polyreactivity

## QVQLQESGGGLVQAGGSLRPRCAAGGTIFVSVNMGWYRHAPGEELEFVASITQGATTNYADSLIGRFTISRDNAKNTVYLQMNCQNQEDTAVYYCAVHESGGITFTYWGQGTQVTVSS
  polyreactivity (PSR sort gate): high polyreactivity

## QVQLVETGGGLVQAGGSLRLSCAASARTFVPYAMGWYRPAPGKERELVADITDGDVSTYADSVNGRFTISRDKAKNTVYLQMNSLKPDDNAVYYCAAQYRRLVTRWPVTFGYWGQGTQVTVSS
  polyreactivity (PSR sort gate): low polyreactivity

## QVQLVESGGGLVQAGGSLRLSCAASGSTIGYYARGWSRQAPGKERELVARIRSTGVSTFYADSVKGRFTISRDNAKNTVYLQMNSLKPEDTAVYYCAAPVSSLGWKHRQYTTWYEYWGQGTQVTVSS
  polyreactivity (PSR sort gate): high polyreactivity

## QVQLVESGGGLVQAGGSLRLSCAASGFIFLPYAKGWYRQAPGKERELVAAITRGGRTYYADSVKGRFTISRDNAKNTVYLQMNSLKPEDTAVYYCAATTYLVWGYNYWGQGTQVTVSS
  polyreactivity (PSR sort gate): low polyreactivity

## QVHLVESGGGLVQAGGSLRLSCAASGSIFAINAMGWYRQAPGKERELVARISWSGGRTYYADSVKGRFTISRDNAKNTVYLQMNSLKPEDTAVYYCAKRYYKSLNRDEFDSWGQGTQVTVSS
  polyreactivity (PSR sort gate): high polyreactivity

## QVQLVESGGGLVQAGGSLRLSCAASGRTFSQYAMGWYRQAPGKERELVAAITSAGSTYYADSVKGRFTISRDNAKNTVYLQMKSLKPEDTAVYYCNARGPSRYTGYSSYYWGQGTQVTVSS
  polyreactivity (PSR sort gate): high polyreactivity

## QVQLVESGGGLVQAGGSLRLSCAASGFTFYDYAMGWYRQAPGKERELVAAISSGTSTYYADSVKGRFTISRDNAKNTVYLQMNSLKPEDTAVYYCAAAGNRPWSITPVRKRYGYNYWGQGTQVTVSS
  polyreactivity (PSR sort gate): high polyreactivity

## QVQLVESGGGLVQAGGSLRLSCAASGFTFYGYAMGWYRQAPGKERELVAAITSGGITNYADSVKGRFTISRDNAKNTVYLQMNSLKPEDTAVYYCNVKRRVSGYYGYKYYYWGQGTQVTVSS
  polyreactivity (PSR sort gate): high polyreactivity

## QVQLKESGGGQVQAGGSLRLCCAASGKIIPDAGMGWYRQAPGKEREFVAGISRGANTYYADSVKGRFTISRDNAKNTLYLHMYSLKPEDTAVFYCAVNVPWTYQYGYWGQGTQVTVSS
  polyreactivity (PSR sort gate): high polyreactivity

## QVQLVESGGGLVQAGGSLRLSCAASGSTFYINTMGRYLQAPGKEREFVAAITWSGGSTYYADSVKGRFTISRDNAKNTVYLQMNSLKPEDTAVYYCAADLYVGDMDYWGQCTQVTVSS
  polyreactivity (PSR sort gate): low polyreactivity

## QVQLVESGGGLVQAGCSLRLSCAASGFIFQANAMGWYRQAPGKERELVAAIDDGDSTYADSVKGRFTISRDNAKNTVYLQMNSLKPEDTAVYYCNADLYGAQDRRLDYYAEGYWGQGTQVTVSS
  polyreactivity (PSR sort gate): low polyreactivity

## QVQLVESGGGLVQAGGSLRLSCAASGSIFSTNAMGWYRQAPGKERELVAVITGIGGITYYADSVKGRFTISRDIAKNTVYLQMNSLIPEDTAVYYCAVGYWDSRYRYDLPNSDYWGQGTEVTVSS
  polyreactivity (PSR sort gate): low polyreactivity

## QVHLVESGGGLVQAGGSLRLSCAASGIIFRRYAMGWYRQAPGKERELVAAISSRGGSTYYADSVKRRFTISRDNAKNTVYLQMNSLKPEDTAVYYCAKGFSGTGGSGDFGYWGQGTQVTVSS
  polyreactivity (PSR sort gate): high polyreactivity

## QVQLVESGGGLVQAGGSLRLSCAASGRTFGFNVMGWYRQAPGKERELVAAISWSGGSTYYADSVKGRFTISRENAKNTVYLQMNSLKPEDTAVYSCNKRYVHRYGYWGQGTQVTVTS
  polyreactivity (PSR sort gate): low polyreactivity

## QVQLVESGGGLVQAGGSHRLSCAASGSTFVSNAMGGYRQAPGKERELVAGITFSGGSTYYADSVKGRFTISRDNAKNAVYLQMNSVKPEDTAVYYCAKRTYPSFYYWGQGTKVTVSS
  polyreactivity (PSR sort gate): low polyreactivity

## QVQLVDSGGGLVQAGGSLRLSCAASGIILYPYAMGWYRQAPGKERELVAAISWSGGSTYYADSVKGRFTISRDNAKNTVYLQMNSLKPEDTAVYYCAARPRRRYYGYDSWGQGTQVTVSS
  polyreactivity (PSR sort gate): high polyreactivity

## QVQLVESGLGLVQAGGSLRLSCAASGRTFYYNAMGWYRQAPGKERELVAAISWSGGNTYYADSVKARFTISRDNAKNTVYLQMNSLKPEDTAVYYCAAVYRYYPGYDYWGHGTQVTVSS
  polyreactivity (PSR sort gate): high polyreactivity

## QVQLVESGGGLVQAGGSLRLSCAASGITFGNYAMGWYRQAPGKDRELVAAITGSGGRTYYADSVKGRFTISRDNAKNTVYLQMNSLKPEDTAVYYCNRRQYGRKKQYDYWGQGTQVTVSS
  polyreactivity (PSR sort gate): low polyreactivity

## QVQLVESGGGLVQAGGSLRLSCAASGSTFRLYAMGWYRQAPGKERELDAAISGSGGSTYYADSVKGRFTISRDYEKNTVYLQMNSLKPVDTAVYYCAAEVVRRYYAGRGYWGHGTQVTVSS
  polyreactivity (PSR sort gate): high polyreactivity

## QVQLVESGVGLVQAGGSLRLSCAASGSTFGGNAMGWYRQAPWKERELVADITFSGGSTSYAHSVKGSFTISRDNAKNTVYLLMNRLKPEDTAVYYCNRDYPEIIVAGLDFWGQGTQLTVSS
  polyreactivity (PSR sort gate): low polyreactivity

## QVLLVEAGRGLVQAGGSLRLSCAASGSIVVGYAMGCYRQAPGKERELVATISYSGDSTYYADSVKGRFTISRDNAKNTVYLQMNSLNPEDSAVYYCATESNGSPYKGDYWGQGTQVTVSS
  polyreactivity (PSR sort gate): low polyreactivity

## QVQLVESWGGLVQAGGSHRLSCDASGRIFTRNAMGWYRQAHGKERELVAAISYDCGSTYYADSVKVRFTISRDNAKNTVYLQMNSLKPEDTAVYYCATDLYLHGYEYWGQGTQVTVSS
  polyreactivity (PSR sort gate): high polyreactivity

## QDQLVESGGGLVQAGGSLRLSCAASGFTFGSYAMGWYRQAHGKERELVAAITASGGSTYYADSVKGRFTISRDNAKNTVYLQMNSLKPEDTAFYYCATRRYDGVAAFRMYYWGQGTQVTVSS
  polyreactivity (PSR sort gate): high polyreactivity

## QVQLVESGGGLVQAGGSLRLSCAASGSTFDSNAMGWYRQAPGKERELVAAIRFSGGSTNYADSVKGRFTISRDNAKNTVYLQMNSLKPEDTAVYYCAARYPNLRRRWYYYWGQGTQVTVSS
  polyreactivity (PSR sort gate): high polyreactivity

## QVQLVESGGGLVQAGGSLRLSCAASGGIFYVNAMGWYRQAPGKERELVAAITSDGVSTYYADSVKGRFTISRDNAKNTVYLQMNSLKPEDTAVYYCAARFQYYRKYDYWGQGTQVTVSS
  polyreactivity (PSR sort gate): low polyreactivity

## QVQLGESGGGLVQAGGSLRLSCAASGFIFFSNAMGWYRQAPGKERELVAAIRSGGSTNYADSVKGRFTISRDNAKNTVYLQMNSQKPEDTAVYYCNVLWLRSRRKYDYWGQGTQVTVSS
  polyreactivity (PSR sort gate): low polyreactivity

## QVQLEESGGGLVQAGGSLRLSCAASGIIFATYAMGWYRQAPGKDRELVAAISSGGRTYYADSVKGRFTISRDNAKNTVYLQMNSLKPEDTAVYYCAAKSGGRSSLYNYWGQGTQVNVSS
  polyreactivity (PSR sort gate): high polyreactivity

## QVQLVESGGGLVQAGGSLRLSCAASGRIYGTNAMGWYRQAPGKEMELVAAINGSDSSTYYADSVKGRFTISRDNAKNTVYLQINSLKPEDTAVYYCNADWSGAPERSTDGYDYWGQGTQVTVSS
  polyreactivity (PSR sort gate): low polyreactivity

## QVQLVESGGGLVQAGGSLRLSCAASGRTFLVYAMGWYRQAPGKERELVAAIRYSGSSTYADSVKGRFTISRDNAKNTVYLQMNSLKPEDTAVYDCNARRASYRSIYDYWGHGTQVTVSS
  polyreactivity (PSR sort gate): high polyreactivity

## QVQLVESGGGLVQAGGSLRLSCAASGSIFRGYAMGWYRQEPEKERELVAAMSRRGGSTYYADSVKGRFSISRDNAKNTVYLQMNSLKPEDTAVYYCAKDGTGAGNYDYWGQGTQVTVSS
  polyreactivity (PSR sort gate): low polyreactivity

## QVQLVESGGGVVQAGGSLRLSGAASGTLDGNAMGWYRPAPGKERELVAAISRCGGRTYYADSVKGRFTISRDNAKNTVYLQMNSQKPEDTAVYYCNTVSKPGYAYNYWGQGTQVTVSS
  polyreactivity (PSR sort gate): high polyreactivity

## QVQLVESGGGLVQAGGSLRLSCAASGSIFKRNAKGWYRQAPGKERGLVAGNSQSGSSTRYADSVKGRFTISRDNAKNTVYLQMNSLKPEDTAVYYCAAELSLAYTYDYWGQGTQVTVSS
  polyreactivity (PSR sort gate): high polyreactivity

## QVQLVESGGGLVQAGGSLRLSCAASGFILYYNAMGWYRQAPGKERELVADISRRGTSTYYADSVKGRFTISRDNAKNTVYLQMNRLKPEDTAVYYCKAVPSARTQPYNGWGQGTQVTVSS
  polyreactivity (PSR sort gate): high polyreactivity

## QVQLVESWGGLVQAGGSLRLSSAASGLTFWYYAMGCNRQAPGKESELVAAITSVGSSYYADSVKGRFTISRDNAKQTVYLQMNSLKPEDTAVYYCAAGVPPLYFRRGGDYWGQGTQVTVSS
  polyreactivity (PSR sort gate): high polyreactivity

## QVQLVESGGGLVQAGGSLRLSCAASGIIFNSNAMGWYRQAPGKERELVAAISVSGGSTYYADSVKGRFTISRDNAKNTVYLQMYSLIPEDTAVYYCNARSLYPWRWKKEYGHWGQGTQVTVSS
  polyreactivity (PSR sort gate): high polyreactivity

— the nanobody polyreactivity screen of Harvey et al. (2022)
